# Where “and” joins values, the source holds several entries; their conditions need not be identical. Identical values can stand only once.
# B1: Ac-TMP: A. caninum putative tissue inhibitor of metalloproteinase, SEQ ID NO: 12; E. coli fusion protein (protein, listed as Ancylostoma caninum)
# chain: MRVAIVFIACFAVAHACKCEKKPRPPLEKLLCQSQFVTHAKVTKKRIDGYFIYYDLEHKEVYKPKDRSIPIELFSWREKENCGMPDLEEGKEYLIGGKVTDYGDGDLVISVSRCDLLRNWTDVSGEEKKLLGTFKCENQS
# modifications: E. coli fusion partner
# notes: E. coli fusion protein
# B2: Ac-MEP-1: A. caninum metalloendopeptidase antigen, SEQ ID NO: 14 (protein, listed as Ancylostoma caninum)
# chain: MAKLLEVTTGLVVLLGVLGVISVVFNVLTWLKLNENKDDSSPAPKIWNVGEQDNTPVLTNLLVLEKEELAAKLKKTPYEEVDEQTVRQSSVMKLRNIKNALFTIEPVASALPPLRVNDPKYCPSYGEPDKKYAYQEAASYLLSGLDQTVDPCEDLYAFTCNTYLRNHNATDIGVNRIGTYKDAQDDVNAEIVEALEEVNVSDTKWSETERLVKATLFTCVHHTRARKPIDNSKNVLIEMRDLFGGIPFLNHTLKKDIDFFDIMGKFEQNHAMGTLLGAMVSVDFKNVNKHSLFLSQPYLPMARDFYVFPQHTKMVENRVSLINSVLRSFAEAVLDDPSPYLDLMSRSARDVVKLEMQIAMASWPESELRNYAQQHNPRTLNQLKAAYPAIKWDSYFNALLSSVQGVDMNRQNIILTQPSYFGWLNALFNGGADDKTIANYLLVHLILEEADFLGGALKTMVQKSDYVPYALGRGKGVTRVGQQLTRSHDDTVEDANIQCLNSMMTYMPFGPGYVYVKSRKNRDDVVKDIEHQTELVFKNFVNMIGNLNWMTDASLELAMEKADTMVKNYGWPKDLFGNFRDSSKIDAYHKKDYGNIINLYKENITHNYYHIRRTMIKGYSNHESLRLLTEAPKRDHFLLSPALVNAWYIPERNSIAFPYAFWNPPYYNYEYPQACNYAGQGGTAGHELVHGFDDQGVQFAADGSLSDCTWIECGWLEEKSKKGFSDMAQCVVTQYSTQCCPQTGGVTHCANGATTQGENIADLGGQLAAYRAYREYITKERGEEEKRLPGLEQYTPNQIFWITYGYSWCMSQTDSSLIRQLLTDVHSPGSCRVNQVMQDIPEFALDFGCTMGQKMYPEPEQRCPVWVAE
# B3: Ac-API: A. caninum aspartyl protease inhibitor antigen, SEQ ID NO: 38 (protein, listed as Ancylostoma caninum)
# chain: MKLLALSALFALAFAAPRDKRLAVSTITVTGGLGLSTGCVVTGNVLYANGFRVREITPSEQQELVKYQNDVAEYKTALKQAIKEREEKIRARLAGKKVKAVESTNQEDLPKPPQKPSFCTPEDTTQFFFEGCMIQNNKIYVGNTFARDLTQPEISELKEFEKKFKVYQDYVQKQAEQQVNSLFGGSDFFSALFSGGETSKPSTTTVAPELPEDAPEQPPTPNFCTRII
# Experiments:
# Assay type in all cases: in vivo, dog
# [1] = test system: A. caninum; assay: Canine vaccine trial with Ac-TMP, Ac-AP, Ac-APR-1, oral challenge with 400 A. caninum L3
# Description: Study dogs and animal husbandry: Following protocol approval by The George Washington University Institutional Animal Care and Use Committee (IACUC), purpose bred, parasite naïve, male beagles 8±1 week of age were purchased, identified by ear tattoo, and maintained in the AALAC (Association for Assessment and Accreditation of Laboratory Animal Care) accredited George Washington University Animal Research Facility. The dogs were housed in a room dedicated for the study, at a room temperature of 70±4° F., with 10-15 air changes per hour comprised of 100 percent fresh air, and 12 hr light cycles alternating with 12 hr dark cycles. The airflow and timer functions were monitored daily. The dogs were fed on a diet of Teklad Certified Dog Chow #8727, supplemented with a canned soft diet in the event of anorexia. The drinking water was piped from a filter plant and delivered via automatc water system; water analysis was performed by the U.S. Army Corps of Engineers. Water from the facilities automatic system is cultured for bacteria and fungi annually. The pens were flushed daily and sanitized every two weeks. Dogs within a given study group were permitted to live together and socialize prior to the hookworm larval challenge, but were caged individually post-infection. All dogs were quarantined for approximately one week before beginning the vaccine trial. Prior to vaccination a complete blood count (CBC), serum chemistries, and a pre-vaccination serum sample were obtained.
# Vaccine study design and sample size: The vaccine trial was designed to test three different antigens, each formulated with alum, as well as an alum adjuvant control. A total of 24 dogs were randomly assigned into four groups comprised of 6 dogs each. The canine sample size was selected on the ability to detect a 40-50 percent reduction in the numbers of adult hookworms in the small intestines of the vaccinated group relative to control dogs, at a statistical power of 80 percent (alpha=0.05, two-tailed). The data were derived from the mean and standard deviation of adult hookworms previously recovered from age-matched dogs infected with 400 A. caninum L3 (Hotez et al, 2002).
# Recombinant Antigens: Each group of 6 dogs was vaccinated with recombinant hookworm proteins expressed as fusion proteins either in Escherichia coli or in an insect cell line with baculovirus. Ac-AP (Cappello et al, 1995; 1996) and Ac-TMP, were expressed in E. coli as pET 28 (Novagen) fusion proteins containing a polyhistidine tag (Cappello et al, 1996). Ac-APR-1 (Harrop et al, 1996) was expressed in a baculovirus pBacPAK6 vector (Clontech), modified to contain a polyhistidine-encoding sequence and additional restriction enzyme sites (Brindley et al, 2001). Recombinant Ac-AP and Ac-TMP fusion proteins were then purified by nickel affinity chromatography, followed by a second step of purification. In the case of Ac-AP (Cappello et al, 1995; 1996), the recombinant protein was purified by mono-S (Amersham-Pharmacia) ion exchange chromatography, while Ac-TMP (Zhan et al, 2002) was purified by superdex 75 (Amersham-Pharmacia) gel filtration chromatography. Ac-APR-1 (Harrop et al, 1996) was purified by substrate affinity chromatography using pepstatin agarose (Brindley et al, 2001). The antigen stock protein concentration was determined by Pierce Micro BCA assay (Pierce Chemicals) or by the absorbance of the sample at […] using an extinction coefficient that was calculated from the deduced amino acid composition of the fusion protein. The amount of alum adsorbed protein in each dose of antigen was measured by the Pierce Micro BCA assay using a bovine serum albumin standard. The relative purity of each of the antigens relative to contaminating E. coli or insect cell proteins was determined by analysis on sodium dodecyl sulfate polyacrylamide gel electrophoresis (SDS-PAGE). […]
# [2] = test system: antibody to recombinant proteins; assay: Pre-challenge antibody titer ELISA, trial with Ac-ASP-2, Ac-API, Ac-MEP-1, Ac-APR-1 in AS03; conditions: for antibody response, in words: AS03
# Procedure: (§1) The vaccine trial was designed to test Ac-API, Ac-ASP-2, Ac-MEP-1, Ac-APR-1 formulated with Adjuvant System 03 (AS03) obtained from GlaxoSmithKline (GSK). The rationale for selecting AS03 as an adjuvants is discussed elsewhere (Stoute et al, 1997). The ten purpose bred beagles were randomized into five arms: immunized with the adjuvant-formulated recombinant proteins or adjuvant only (control). To make six doses of antigen formulated with AS03, […] of recombinant protein (0.3 ml of antigen at a concentration of 2 mg.ml^−1) was mixed with 1.2 ml of 20 mM Tris-HCl, 0.5 M NaCl, pH 7.9 and 1.5 ml of AS03; the contents of the tube were vortex mixed for 30 seconds then shaken at low speed for 10 minutes. Dogs were immunized with 100 g of formulated antigen in a final volume of 0.5 ml. ASO3 only control was prepared as described above, with PBS included instead of antigen. Formulation of GSK adjuvants were conducted according to the protocol provided by GSK. All injections were performed intramuscularly (IM). Test and control articles were prepared on the day of injection. All animals received 4 immunizations approximately 3 weeks apart.
# Beagles were immunized with formulated Ac-ASP-2 as previously described (Loukas et al, 2004). The vaccines were administered IM three times beginning at age 62+/−4 days. Boosts were administered to the dogs at intervals of 21 days. Blood was drawn at least once every 21 days and serum was separated from cells by centrifugation. Each animal's specific antibody response was evaluated by indirect ELISA using serum taken prior to the infective challenge (Loukas et al, 2004). Recombinant Ac-ASP-2 was coated onto microtiter plates at a concentration of 5 g.ml^−1. Dog sera were titrated between 1:100 and 1:2×10^6 to determine endpoint titers. Anti-canine IgG1, IgG2 and IgE antibodies conjugated to horse-radish peroxidase (Bethyl Laboratories) were used at a dilution of 1:1,000.
# [3] = test system: A. caninum; assay: Canine vaccine trial with Ac-ASP-2, Ac-API, Ac-MEP-1, Ac-APR-1 in AS03, footpad challenge with 500 A. caninum L3; conditions: for worm burdens, Maximum / worm burdens, Minimum / worm burdens, Mean / worm burdens, Median: 5 dogs; for worm burdens, Mean: ASO3 control 203.8000; for worm burdens, Median: ASO3 control 215.0000; for worm burden, Colon, Male, Average / worm burden, Colon, Female, Average / worm burden, Intestine, Female, Average / worm burden, Intestine, Male, Average / worm burden, Total, Average: group average; for worm burden, Colon, Male, Average: AS03 control 5; for worm burden, Colon, Female, Average: AS03 control 9; for worm burden, Intestine, Female, Average: AS03 control 95; for worm burden, Intestine, Male, Average: AS03 control 96; for worm burden, Total, Average: AS03 control 204; for worm burden, Colon, Female / worm burden, Colon, Male / worm burden, Intestine, Female / worm burden, Intestine, Male / worm burden, Total: individual dogs
# Procedure: as §1, with “The ten purpose bred beagles were randomized into five arms: immunized with the adjuvant-formulated recombinant proteins or adjuvant only (control).” left out
# A. caninum larvae were cultured from eggs collected in the feces of infected dogs. All hookworms in the infective challenge were approximately equal age (17±7 days post hatching). The species identity of the infective larvae were validated using PCR. All dogs were infected by the footpad method with the same dose of 500 L3 of A. caninum (Zhan et al, 2001). Larval challenge occurred on one of three consecutive days (at age 120+/−9 days). Fourteen-sixteen days after the final immunization, dogs were anesthetized using a combination of ketamine and xylazine (20 mg.kg^−1 and 10 mg.kg^−1 respectively), and 500 A. caninum L3 in a final volume of […] were applied to the footpad.
Molecule,"antibody response, in words [2]","Pre-challenge antibody titer, IgG1, GEOMEAN ([2]; geometric mean of group)","Pre-challenge antibody titer, IgG2, GEOMEAN ([2]; geometric mean of group)","Pre-challenge antibody titer, IgG1 ([2]; individual dogs)","Pre-challenge antibody titer, IgG2 ([2]; individual dogs)","worm burdens, Maximum [3]","worm burdens, Minimum [3]","worm burdens, Mean [3]","worm burdens, Median [3]","worm burden, Colon, Male, Average [3]","worm burden, Colon, Female, Average [3]","worm burden, Intestine, Female, Average [3]","worm burden, Intestine, Male, Average [3]","worm burden, Total, Average [3]","worm burden, Colon, Female [3]","worm burden, Colon, Male [3]","worm burden, Intestine, Female [3]","worm burden, Intestine, Male [3]","worm burden, Total [3]",other results
B1,,,,,,,,,,,,,,,,,,,,"% Decrease of adult hookworms in the small intestines relative to alum-injected dogs ([1]; group): 10.8%; % Increase of adult hookworms in the colons relative to alum-injected dogs ([1]; group): 500%; adult A. caninum hookworms in the colons, Median ([1]; group median, alum control 4): 32; adult hookworms in the small intestines, Median ([1]; group median, alum control 180): 161; ratio of adult hookworms in the small intestine relative to the colon ([1]; vaccinated group, alum-injected dogs 43.9): 6.6"
B2,weak,100,"1,204",100,"1,500 (4×) and 500",293.00,109.00,183.4000,129.0000,3,6,91,87,183,0 and 2 and 7 and 9 and 12,0 and 1 and 2 and 5 and 8,64 and 58 and 153 and 130 and 50,65 and 47 and 131 and 124 and 49,129 and 108 and 293 and 268 and 119,worm burden reductions in three out of the five vaccinated dogs ([3]; versus control mean): exceeded 36%
B3,robust,"3,612","32,511","4,500 (4×) and 1,500","40,500 (4×) and 13,500",237.00,146.00,187.800,167.0000,5,12,83,87,188,3 and 1 and 12 and 24 and 21,3 and 0 and 2 and 9 and 10,86 and 83 and 66 and 91 (2×),54 and 83 and 80 and 105 and 115,146 and 167 and 160 and 229 and 237,"Pre-challenge antibody titer, IgE, GEOMEAN ([2]; geometric mean of group): 100; Pre-challenge antibody titer, IgE ([2]; individual dogs): 100; fecal eggs (fecundity), in words ([3]; relative to the control group): significant reduction in fecal eggs; worm burden, in words ([3]; versus AS03 control): no remarkable reduction in worm burden"

# From patent US7303752B2, “Hookworm vaccine” (The George Washington University, priority 2001, dated 2007)
